Tests used:
Test in all cases: cell-based or functional assay
[1] = molecular target: AMPKα1(h) (human) (UniProt Q13131)
[2] = molecular target: Arg(h) (human) (UniProt P42684)
[3] = molecular target: CDK2/cyclinE(h) (human) (UniProt P24941)
[4] = molecular target: T1, CHK1(h) (human) (UniProt O14757)
T1 sequence (looked up): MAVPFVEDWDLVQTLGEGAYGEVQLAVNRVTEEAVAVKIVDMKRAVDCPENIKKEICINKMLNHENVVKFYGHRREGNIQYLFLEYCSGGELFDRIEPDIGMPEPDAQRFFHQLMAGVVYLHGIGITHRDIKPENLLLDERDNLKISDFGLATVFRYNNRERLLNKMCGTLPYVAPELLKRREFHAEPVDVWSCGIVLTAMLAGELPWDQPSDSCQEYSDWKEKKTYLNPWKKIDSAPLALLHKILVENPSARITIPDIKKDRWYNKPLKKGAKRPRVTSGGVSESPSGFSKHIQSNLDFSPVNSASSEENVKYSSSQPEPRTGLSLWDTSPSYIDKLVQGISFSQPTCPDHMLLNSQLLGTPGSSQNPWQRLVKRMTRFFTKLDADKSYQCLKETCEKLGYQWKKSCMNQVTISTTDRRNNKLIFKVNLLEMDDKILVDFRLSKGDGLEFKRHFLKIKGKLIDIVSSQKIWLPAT

[5] = molecular target: CaMKIIβ(h) (human) (UniProt Q13554)
CaMKIIβ(h) (human), sequence (Q13554 whole entry): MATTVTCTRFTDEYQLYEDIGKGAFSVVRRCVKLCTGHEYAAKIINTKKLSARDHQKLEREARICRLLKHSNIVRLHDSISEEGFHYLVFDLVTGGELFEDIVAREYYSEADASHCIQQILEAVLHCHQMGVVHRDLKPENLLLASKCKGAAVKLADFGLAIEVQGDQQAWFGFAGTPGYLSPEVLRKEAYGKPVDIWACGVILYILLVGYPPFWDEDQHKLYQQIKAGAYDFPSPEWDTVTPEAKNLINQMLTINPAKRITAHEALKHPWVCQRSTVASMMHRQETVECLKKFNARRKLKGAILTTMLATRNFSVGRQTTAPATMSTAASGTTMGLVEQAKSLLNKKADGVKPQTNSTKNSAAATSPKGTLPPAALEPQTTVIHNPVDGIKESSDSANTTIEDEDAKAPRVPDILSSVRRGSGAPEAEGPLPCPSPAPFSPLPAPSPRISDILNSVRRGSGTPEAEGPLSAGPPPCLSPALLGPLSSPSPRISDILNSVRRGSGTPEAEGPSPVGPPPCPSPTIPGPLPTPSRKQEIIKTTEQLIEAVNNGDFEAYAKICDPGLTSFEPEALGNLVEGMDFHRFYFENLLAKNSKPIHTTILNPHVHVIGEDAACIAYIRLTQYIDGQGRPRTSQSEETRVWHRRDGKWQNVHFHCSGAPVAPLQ

[6] = molecular target: DAPK1(h) (human) (UniProt P53355)
[7] = molecular target: T2, EphA8(h) (human) (UniProt P29322)
T2 sequence (looked up): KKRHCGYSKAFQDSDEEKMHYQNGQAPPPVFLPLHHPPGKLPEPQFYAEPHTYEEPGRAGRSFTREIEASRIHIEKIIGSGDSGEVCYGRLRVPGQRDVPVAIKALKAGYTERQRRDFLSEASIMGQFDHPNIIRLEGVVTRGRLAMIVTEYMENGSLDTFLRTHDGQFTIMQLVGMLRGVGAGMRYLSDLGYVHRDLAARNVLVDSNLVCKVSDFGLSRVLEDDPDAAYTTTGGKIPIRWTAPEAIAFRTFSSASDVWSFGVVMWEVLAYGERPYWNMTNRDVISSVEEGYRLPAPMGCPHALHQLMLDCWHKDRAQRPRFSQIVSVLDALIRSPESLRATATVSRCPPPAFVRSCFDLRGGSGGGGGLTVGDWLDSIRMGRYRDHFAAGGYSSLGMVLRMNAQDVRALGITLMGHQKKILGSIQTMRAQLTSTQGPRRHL

[8] = molecular target: EphB4(h) (human) (UniProt P54760)
[9] = molecular target: FGFR2(h) (human) (UniProt P21802)
FGFR2(h) (human), sequence (P21802 456-770 limits assumed): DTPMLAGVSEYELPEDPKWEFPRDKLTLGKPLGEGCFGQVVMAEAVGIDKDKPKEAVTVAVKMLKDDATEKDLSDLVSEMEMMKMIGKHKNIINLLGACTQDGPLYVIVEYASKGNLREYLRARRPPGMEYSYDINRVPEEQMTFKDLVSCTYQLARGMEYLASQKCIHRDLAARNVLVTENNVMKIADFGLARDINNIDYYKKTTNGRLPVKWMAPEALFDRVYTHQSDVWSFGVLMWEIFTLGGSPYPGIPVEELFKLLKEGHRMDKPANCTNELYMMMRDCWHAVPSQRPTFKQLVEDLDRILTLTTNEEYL

[10] = molecular target: Hck(h) activated (human) (UniProt P08631)
[11] = molecular target: IRR(h) (human) (UniProt P14616)
IRR(h) (human), sequence (P14616 944-1297 limits assumed): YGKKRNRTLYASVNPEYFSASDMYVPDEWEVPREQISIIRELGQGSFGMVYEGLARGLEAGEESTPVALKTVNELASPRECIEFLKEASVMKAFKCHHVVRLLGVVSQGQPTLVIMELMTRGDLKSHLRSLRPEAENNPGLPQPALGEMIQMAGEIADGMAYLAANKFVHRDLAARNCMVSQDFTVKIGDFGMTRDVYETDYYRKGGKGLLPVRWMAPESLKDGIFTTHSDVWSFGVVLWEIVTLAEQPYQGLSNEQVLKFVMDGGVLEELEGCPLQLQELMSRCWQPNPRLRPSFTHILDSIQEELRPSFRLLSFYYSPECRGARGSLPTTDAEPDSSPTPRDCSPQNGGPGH

[12] = molecular target: MSK1(h) (human) (UniProt O75582)
[13] = molecular target: NEK7(h) (human) (UniProt Q8TDX7)
[14] = molecular target: PDGFRα(V561D)(h) (human) (UniProt P16234)
PDGFRα(V561D)(h) (human), sequence (P16234 550-1089 V561D limits assumed): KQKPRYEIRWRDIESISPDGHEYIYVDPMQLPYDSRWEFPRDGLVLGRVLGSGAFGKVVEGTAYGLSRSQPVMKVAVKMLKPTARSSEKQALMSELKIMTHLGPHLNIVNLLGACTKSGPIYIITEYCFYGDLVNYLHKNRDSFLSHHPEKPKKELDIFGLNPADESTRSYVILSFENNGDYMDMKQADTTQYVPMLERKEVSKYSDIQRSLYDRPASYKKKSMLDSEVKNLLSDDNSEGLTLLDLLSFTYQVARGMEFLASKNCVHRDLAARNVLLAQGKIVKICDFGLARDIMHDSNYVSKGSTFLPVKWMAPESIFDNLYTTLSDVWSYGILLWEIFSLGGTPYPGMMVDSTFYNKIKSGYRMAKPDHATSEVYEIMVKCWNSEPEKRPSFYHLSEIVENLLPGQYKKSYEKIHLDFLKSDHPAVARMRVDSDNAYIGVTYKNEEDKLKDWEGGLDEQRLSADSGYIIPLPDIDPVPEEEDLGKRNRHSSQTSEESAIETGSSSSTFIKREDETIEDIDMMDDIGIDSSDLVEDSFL

[15] = molecular target: PKCθ(h) (human) (UniProt Q04759)
[16] = molecular target: T3, PrKX(h) (human) (UniProt P51817)
T3 sequence (looked up): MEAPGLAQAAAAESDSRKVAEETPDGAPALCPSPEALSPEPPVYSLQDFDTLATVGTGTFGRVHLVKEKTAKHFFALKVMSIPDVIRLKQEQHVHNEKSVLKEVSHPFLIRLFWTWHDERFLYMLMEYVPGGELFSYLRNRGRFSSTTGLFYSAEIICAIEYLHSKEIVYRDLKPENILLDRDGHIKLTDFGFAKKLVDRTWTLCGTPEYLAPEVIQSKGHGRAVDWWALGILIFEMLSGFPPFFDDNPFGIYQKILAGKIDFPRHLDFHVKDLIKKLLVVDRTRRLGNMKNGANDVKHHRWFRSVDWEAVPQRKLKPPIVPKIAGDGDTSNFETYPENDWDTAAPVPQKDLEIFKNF

[17] = molecular target: T4, TAK1(h) (human) (UniProt O43318)
T4 sequence (looked up): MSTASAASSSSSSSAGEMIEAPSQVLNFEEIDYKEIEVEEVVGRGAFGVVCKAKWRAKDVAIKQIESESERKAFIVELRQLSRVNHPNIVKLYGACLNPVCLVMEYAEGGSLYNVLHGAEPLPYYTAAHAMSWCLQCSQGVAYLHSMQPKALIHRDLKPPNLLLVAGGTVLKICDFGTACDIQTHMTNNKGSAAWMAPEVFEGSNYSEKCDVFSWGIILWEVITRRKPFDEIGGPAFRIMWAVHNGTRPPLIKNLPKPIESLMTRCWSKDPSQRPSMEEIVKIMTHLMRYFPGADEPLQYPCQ

[18] = molecular target: T5, TSSK1(h) (human) (UniProt Q9BXA7)
T5 sequence (looked up): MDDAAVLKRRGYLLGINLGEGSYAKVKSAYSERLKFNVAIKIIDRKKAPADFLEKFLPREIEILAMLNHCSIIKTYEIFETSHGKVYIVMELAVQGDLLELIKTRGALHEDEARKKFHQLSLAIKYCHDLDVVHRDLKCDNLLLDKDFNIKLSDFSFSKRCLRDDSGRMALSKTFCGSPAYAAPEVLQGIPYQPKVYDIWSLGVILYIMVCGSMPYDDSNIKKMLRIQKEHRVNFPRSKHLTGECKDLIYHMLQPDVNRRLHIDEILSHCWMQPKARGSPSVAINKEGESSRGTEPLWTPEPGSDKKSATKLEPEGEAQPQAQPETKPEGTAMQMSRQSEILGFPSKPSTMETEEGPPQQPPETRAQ

[19] = molecular target: ZAP-70(h) (human) (UniProt P43403)
ZAP-70(h) (human), sequence (P43403 whole entry): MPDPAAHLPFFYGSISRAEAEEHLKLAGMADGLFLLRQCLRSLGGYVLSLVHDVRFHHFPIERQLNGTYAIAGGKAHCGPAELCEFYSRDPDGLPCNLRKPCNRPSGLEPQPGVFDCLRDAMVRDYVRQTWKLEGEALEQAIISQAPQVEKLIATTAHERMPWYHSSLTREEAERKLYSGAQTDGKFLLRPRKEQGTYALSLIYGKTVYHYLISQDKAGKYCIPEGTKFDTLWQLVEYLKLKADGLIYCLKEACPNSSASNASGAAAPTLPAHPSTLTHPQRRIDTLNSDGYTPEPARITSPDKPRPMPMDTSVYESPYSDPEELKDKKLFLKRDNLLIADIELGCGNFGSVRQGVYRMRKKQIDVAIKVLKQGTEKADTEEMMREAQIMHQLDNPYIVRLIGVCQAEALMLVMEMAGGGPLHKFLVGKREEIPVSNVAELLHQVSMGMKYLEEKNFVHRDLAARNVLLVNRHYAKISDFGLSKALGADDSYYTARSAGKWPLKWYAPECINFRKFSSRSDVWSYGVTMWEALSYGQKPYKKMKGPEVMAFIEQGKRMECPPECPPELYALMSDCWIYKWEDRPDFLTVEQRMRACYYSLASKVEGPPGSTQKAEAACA

[20] = molecular target: mTOR/FKBP12(h) (human) (UniProt P42345)
mTOR/FKBP12(h) (human), sequence (P42345 1362-2549 limits assumed, chain 1 of 2): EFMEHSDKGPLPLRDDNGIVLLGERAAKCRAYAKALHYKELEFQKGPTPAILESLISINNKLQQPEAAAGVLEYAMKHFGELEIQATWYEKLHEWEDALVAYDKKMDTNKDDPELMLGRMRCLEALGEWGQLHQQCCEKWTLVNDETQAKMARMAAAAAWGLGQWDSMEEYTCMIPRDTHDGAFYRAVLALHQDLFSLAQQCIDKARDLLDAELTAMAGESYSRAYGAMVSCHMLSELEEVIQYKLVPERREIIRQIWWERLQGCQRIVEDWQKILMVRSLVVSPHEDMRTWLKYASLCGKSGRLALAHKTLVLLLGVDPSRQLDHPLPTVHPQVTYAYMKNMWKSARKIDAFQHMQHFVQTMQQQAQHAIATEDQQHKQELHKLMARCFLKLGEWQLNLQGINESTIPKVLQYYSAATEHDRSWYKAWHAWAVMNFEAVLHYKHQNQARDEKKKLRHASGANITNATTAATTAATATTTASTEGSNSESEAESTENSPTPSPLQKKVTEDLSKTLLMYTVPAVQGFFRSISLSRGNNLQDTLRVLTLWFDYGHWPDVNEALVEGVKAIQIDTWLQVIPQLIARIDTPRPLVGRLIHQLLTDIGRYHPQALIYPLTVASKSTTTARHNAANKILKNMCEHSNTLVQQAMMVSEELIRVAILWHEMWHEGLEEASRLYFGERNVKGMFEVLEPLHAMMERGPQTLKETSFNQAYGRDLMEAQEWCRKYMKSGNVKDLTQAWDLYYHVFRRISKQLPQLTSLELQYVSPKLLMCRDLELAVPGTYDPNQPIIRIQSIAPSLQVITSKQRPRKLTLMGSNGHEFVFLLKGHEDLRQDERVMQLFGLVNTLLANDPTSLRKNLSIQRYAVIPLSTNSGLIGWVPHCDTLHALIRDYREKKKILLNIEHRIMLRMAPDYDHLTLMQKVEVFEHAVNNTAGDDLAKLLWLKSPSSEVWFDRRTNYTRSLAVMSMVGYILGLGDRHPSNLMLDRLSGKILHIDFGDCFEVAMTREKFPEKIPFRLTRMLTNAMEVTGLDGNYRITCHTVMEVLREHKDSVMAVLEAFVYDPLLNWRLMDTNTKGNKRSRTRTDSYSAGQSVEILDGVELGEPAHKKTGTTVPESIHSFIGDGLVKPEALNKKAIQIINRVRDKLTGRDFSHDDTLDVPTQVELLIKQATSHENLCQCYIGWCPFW
mTOR/FKBP12(h) (human), sequence (P62942 whole entry, chain 2 of 2, further chain): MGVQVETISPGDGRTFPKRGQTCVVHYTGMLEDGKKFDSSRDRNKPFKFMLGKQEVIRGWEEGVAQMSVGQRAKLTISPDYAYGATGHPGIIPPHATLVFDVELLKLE

[21] = molecular target: EGFR(L858R)(h) (human) (UniProt P00533)
[22] = molecular target: MRCKα(h) (human) (UniProt Q5VT25)
[23] = molecular target: cKit(V560G)(h) (human) (UniProt P10721)

Arg(h) (human), sequence (P42684 38-1182 limits assumed): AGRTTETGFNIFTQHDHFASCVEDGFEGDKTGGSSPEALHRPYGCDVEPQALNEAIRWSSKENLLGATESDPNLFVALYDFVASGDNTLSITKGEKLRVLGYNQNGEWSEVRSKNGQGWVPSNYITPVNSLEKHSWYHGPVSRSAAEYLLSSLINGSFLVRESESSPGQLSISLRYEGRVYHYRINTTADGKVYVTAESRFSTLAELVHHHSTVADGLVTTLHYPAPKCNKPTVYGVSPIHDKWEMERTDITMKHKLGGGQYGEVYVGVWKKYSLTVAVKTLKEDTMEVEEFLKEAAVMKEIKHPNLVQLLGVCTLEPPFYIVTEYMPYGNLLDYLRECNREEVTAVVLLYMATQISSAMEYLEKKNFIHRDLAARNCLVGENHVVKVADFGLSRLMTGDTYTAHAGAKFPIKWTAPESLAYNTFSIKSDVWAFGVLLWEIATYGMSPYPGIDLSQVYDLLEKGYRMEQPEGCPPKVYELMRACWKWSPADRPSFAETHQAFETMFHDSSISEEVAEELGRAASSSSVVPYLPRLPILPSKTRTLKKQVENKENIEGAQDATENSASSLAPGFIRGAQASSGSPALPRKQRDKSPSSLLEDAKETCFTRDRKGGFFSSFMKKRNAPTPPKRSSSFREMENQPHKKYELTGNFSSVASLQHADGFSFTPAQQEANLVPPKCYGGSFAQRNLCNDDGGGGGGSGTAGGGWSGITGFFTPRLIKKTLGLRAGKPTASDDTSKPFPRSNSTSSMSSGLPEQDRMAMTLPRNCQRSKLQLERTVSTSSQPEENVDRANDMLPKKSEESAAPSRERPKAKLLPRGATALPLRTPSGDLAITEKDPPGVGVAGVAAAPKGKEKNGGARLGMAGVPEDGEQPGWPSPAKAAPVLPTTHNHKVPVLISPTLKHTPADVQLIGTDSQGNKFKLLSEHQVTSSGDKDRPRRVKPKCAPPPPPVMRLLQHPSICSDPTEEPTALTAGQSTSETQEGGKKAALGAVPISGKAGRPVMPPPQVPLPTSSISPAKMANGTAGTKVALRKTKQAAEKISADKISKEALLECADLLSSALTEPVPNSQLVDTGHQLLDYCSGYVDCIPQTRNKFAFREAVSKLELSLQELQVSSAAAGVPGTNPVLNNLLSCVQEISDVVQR

% activity at 100 µM [1] [%] | % activity at 100 µM [2] [%] | % activity at 100 µM [3] [%] | % activity at 100 µM [4] [%] | % activity at 100 µM [5] [%] | % activity at 100 µM [6] [%] | % activity at 100 µM [7] [%] | % activity at 100 µM [8] [%] | % activity at 100 µM [9] [%] | % activity at 100 µM [10] [%] | % activity at 100 µM [11] [%] | % activity at 100 µM [12] [%] | % activity at 100 µM [13] [%] | % activity at 100 µM [14] [%] | % activity at 100 µM [15] [%] | % activity at 100 µM [16] [%] | % activity at 100 µM [17] [%] | % activity at 100 µM [18] [%] | % activity at 100 µM [19] [%] | % activity at 100 µM [20] [%] | Substance | further results
71 | 72 | 94 | 91 | 2 | 46 | 93 | 44 | 14 | 82 | 8 | 32 | 84 | 82 | 88 | 61 | 122 | 79 | 75 | 145 | MMI-0300 (peptide) | –
87 | 84 | 83 | 87 | 11 | 36 | 146 | 28 | 18 | 81 | 8 | 28 | 87 | 100 | 76 | 76 | 177 | 79 | 33 | 125 | MMI-0400 (peptide) | % activity at 100 µM [21]: 52%; % activity at 100 µM [22]: 97%; % activity at 100 µM [23]: 124%
35 | 22 | 19 | 65 | 3 | 0 | 337 | 38 | 12 | 67 | 10 | 8 | 89 | 146 | 62 | 57 | – | 46 | 1 | 140 | MMI-0500 (peptide) | % activity at 100 µM [21]: 26%; % activity at 100 µM [22]: 5%; % activity at 100 µM [23]: 198%

Source: US20150064134A1
